Tests used:
GP120 (HIV-1 JRFL) = experiment: SPR; conditions: chains peptide; modification not given
[1] = target: HIV-1 JRFL gp120 protein (HIV-1 JRFL); experiment: peptide blocking ELISA: coated gp120 pre-incubated with GP3 (125 ng), then recombinant CCR5-GST, anti-GST HRP; competitor CCR5
[2] = target: gp120 of HIV-1 BaL (HIV-1 BaL); experiment: cell-based or functional assay

Binder: RRRNVPLILGGGGGGSGGSGK [GP2]
- Kd (GP120 (HIV-1 JRFL)): 76.1 µM

Binder: SYSFCPRRQGGGGGGSGGSGK (modifications not checked) [GP3]
- Kd (GP120 (HIV-1 JRFL)): 39.1 µM
- reduction in absorbance (CCR5 binding to gp120) [1]: 65.8%
- inhibition of HIV-1 BaL infection (p24+ CD4 T cells), peptide without streptavidin, 100 µM [2]: 34.5%
- inhibition of HIV-1 BaL infection (p24+ CD4 T cells), peptide without streptavidin, 250 µM [2]: 54.7%

Binder: LWCRRLNLLGGGGGGSGGSGK (modifications not checked) [GP16]
- Kd (GP120 (HIV-1 JRFL)): 42.7 µM
- inhibition of HIV-1 BaL infection (p24+ CD4 T cells), peptide without streptavidin, 50 µM [2]: < 1%
- inhibition of HIV-1 BaL infection (p24+ CD4 T cells), peptide without streptavidin, 100 µM [2]: < 1%
- inhibition of HIV-1 BaL infection (p24+ CD4 T cells), peptide without streptavidin, 250 µM [2]: 50%
- viral inhibition, peptide conjugated with streptavidin, 50 µM [2]: 62.6%

Binder: LLALSAYMVGGGGGGSGGSGK [GP11]
- Kd (GP120 (HIV-1 JRFL)): 48.3 µM
